The data set addresses T1, CRPM (cAMP receptor protein of Mtb) (Mycobacterium tuberculosis) (UniProt P9WMH3).
T1 sequence: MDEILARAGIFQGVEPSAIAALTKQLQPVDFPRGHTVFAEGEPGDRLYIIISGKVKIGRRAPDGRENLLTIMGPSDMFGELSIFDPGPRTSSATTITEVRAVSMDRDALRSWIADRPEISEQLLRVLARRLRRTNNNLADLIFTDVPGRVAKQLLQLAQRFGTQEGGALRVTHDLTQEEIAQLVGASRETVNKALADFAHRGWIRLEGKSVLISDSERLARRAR
Put plainly: EMSA. In general terms: In EMSA bound probe runs differently from free probe, usually more slowly.

In turn, “TCAGCGACCGTCAGCACGCCAGTTCAATACGGCGAGAAGCGCGTTCTCATCGAAAGTCGGTCAAGCTGGCGGACTGAGCACTGCTCTCCGGGCTTGACCGGGGCCTCTCCCAGCTACGCCCCGAGCGTGTGCCCTGCCGACACGCGGGAACAAGACCCGCACGACCAGCGTTAGCATGCTCAGTAAGTTGAGTGCATCAGGCTCAGCTCTGAATTGACAGCACACCGCCGTCGAGGCAAGCTTGAGCGGGGTGCACTCATCATAGTGCAGGAAAGAAGCTCTACATATTCAGGAGGATTCACC (double strand) [dnaK-303]” yielded a binding signal (fold reduced vs dnaK-346) of 2.

The values are drawn from paper PMC3938503.
